± gives the uncertainty stated by the source.
B1: Ankyrin-3, residues 4094 to 4171; numbered along this chain, Q12955 (parent)
chain: MAIVADHLGLSWTELARELNFSVDEINQIRVENPNSLISQSFMLLKKWVTRDGKNATTDALTSVLTKINRIDIVTLLE

Variants of: B1
Experiment: abundance fitness (aPCA) (normalised: wild type 0, dead -1); higher = more abundant; growth selection in yeast, the domain comes from the species named
Details: Homo sapiens

Variant | abundance fitness
E32A | -0.039 ± 0.057
E32C | -0.249 ± 0.093
E32T | -0.155 ± 0.086
E32K | -0.48 ± 0.21
E32R | -0.126 ± 0.051
E32N | -0.074 ± 0.15
E32Q | -0.1 ± 0.14
D59Q | 0.052 ± 0.11
D59S | -0.118 ± 0.052
D59K | 0.052 ± 0.078
D59F | -0.565 ± 0.36
N27T | -0.174 ± 0.075
N27W | -0.35 ± 0.097
N27D | -0.272 ± 0.12
L10P | -0.04 ± 0.086
L10W | -0.101 ± 0.078
Q28R | -0.071 ± 0.043
S11K | -0.761 ± 0.25
S11G | -0.261 ± 0.056
S11L | -0.963 ± 0.12
S11R | -0.965 ± 0.12
T13C | -0.546 ± 0.14
T13D | -0.35 ± 0.18
T13S | -0.078 ± 0.057

Variant | abundance fitness
T13G | -0.417 ± 0.062
T13W | -0.707 ± 0.1
T13H | -0.178 ± 0.11
A16L | -0.996 ± 0.15
A16N | -0.793 ± 0.23
A16R | -0.893 ± 0.17
H7K | -0.016 ± 0.1
H7V | -0.202 ± 0.057
H7P | -0.881 ± 0.11
L45A | -0.862 ± 0.13
L45I | -0.302 ± 0.12
L45P | -0.92 ± 0.15
L45W | -0.862 ± 0.14
I68F | -0.963 ± 0.34
I68G | -0.916 ± 0.15
I68L | -0.219 ± 0.057
I68E | -0.964 ± 0.34
K47C | -0.369 ± 0.12
Q40N | -1.03 ± 0.38
Q40H | -0.622 ± 0.18
Q40I | -0.663 ± 0.37
Q40K | -0.35 ± 0.25
Q40L | -0.833 ± 0.13
Q40D | -0.726 ± 0.23

Variant | abundance fitness
Q40R | -0.407 ± 0.055
K46H | -0.195 ± 0.16
K46R | -0.018 ± 0.041
K46I | -0.581 ± 0.17
K46P | -0.915 ± 0.12
K46Y | -0.665 ± 0.16
K46C | -0.432 ± 0.079
A60C | -0.09 ± 0.13
A60Q | -0.021 ± 0.069
A60V | -0.019 ± 0.039
A60Y | -0.417 ± 0.26
A60S | -0.134 ± 0.071
A60R | -0.081 ± 0.051
D6P | -0.238 ± 0.078
D6L | -0.352 ± 0.063
D6F | -0.658 ± 0.36
D6S | -0.258 ± 0.063
D6N | -0.067 ± 0.3
E18D | -0.614 ± 0.3
E18V | -0.148 ± 0.053
E18A | -0.187 ± 0.053
E18R | -1.09 ± 0.21
E18M | -0.339 ± 0.16
L15F | -0.149 ± 0.096

Variant | abundance fitness
L15S | -0.772 ± 0.12
L15I | -0.387 ± 0.2
L15P | -0.741 ± 0.15
I73N | -0.597 ± 0.39
I73V | -0.276 ± 0.089
I73M | -0.503 ± 0.14
L44T | -0.561 ± 0.087
L44D | -0.695 ± 0.32
L44C | -0.116 ± 0.09
L44R | -0.796 ± 0.1
L44E | -0.902 ± 0.39
L19C | -0.793 ± 0.23
L19H | -0.694 ± 0.25
L19A | -0.591 ± 0.089
L19R | -0.79 ± 0.094
L19G | -1.01 ± 0.15
L19I | -0.333 ± 0.14
R70A | -0.918 ± 0.19
R70K | -0.393 ± 0.24
R70P | -0.74 ± 0.29
R70V | -0.876 ± 0.2
D72W | -0.894 ± 0.32
D72Q | -0.702 ± 0.3
D72M | -0.738 ± 0.33

Variant | abundance fitness
F42L | -0.063 ± 0.065
F42M | 0.102 ± 0.12
F42R | 0.188 ± 0.052
G53S | -0.325 ± 0.046
G53T | -0.521 ± 0.14
G53Q | -0.065 ± 0.059
G53M | -0.772 ± 0.26
G53V | -0.672 ± 0.089
G53P | -0.149 ± 0.051
G53A | -0.457 ± 0.077
G53K | -0.145 ± 0.13
T57Q | -0.298 ± 0.11
T57R | -0.548 ± 0.066
T57V | -0.124 ± 0.055
T58D | 0.086 ± 0.079
T58L | -0.002 ± 0.05
T58N | -0.168 ± 0.17
T58G | -0.104 ± 0.04
E25Y | -0.792 ± 0.2
E25G | -0.826 ± 0.14
E25M | -0.739 ± 0.19
E25Q | -0.251 ± 0.045
E25I | -0.754 ± 0.27
E25H | -0.859 ± 0.23

Variant | abundance fitness
L65Q | -1.05 ± 0.27
L65C | -0.505 ± 0.091
L65W | -0.901 ± 0.16
L65V | -0.779 ± 0.11
L65N | -0.426 ± 0.25
L65H | -0.973 ± 0.2
L65P | -0.701 ± 0.099
V4I | -0.169 ± 0.17
V4T | -0.291 ± 0.08
V4Q | -0.659 ± 0.19
V4E | -1.01 ± 0.18
V4F | -0.789 ± 0.28
I3R | -0.321 ± 0.05
I3S | -0.411 ± 0.062
I3P | -0.46 ± 0.087
W12M | -0.844 ± 0.25
W12R | -0.844 ± 0.12
W12Q | -0.534 ± 0.3
T66C | -0.21 ± 0.078
T66Q | 0.118 ± 0.068
T66P | -0.535 ± 0.064
T66R | -0.07 ± 0.051
T66H | -0.013 ± 0.092
I71W | -0.029 ± 0.077

Variant | abundance fitness
I71F | 0.066 ± 0.12
I71S | -0.048 ± 0.076
I71Q | 0.136 ± 0.14
I71V | 0.015 ± 0.055
L77H | -0.742 ± 0.23
L77G | -0.68 ± 0.11
L77P | -0.768 ± 0.14
G9E | -0.273 ± 0.074
G9T | -1 ± 0.29
G9V | -0.551 ± 0.11
V49G | -0.168 ± 0.044
V49D | -0.392 ± 0.14
V49C | -0.095 ± 0.07
V49Q | 0.07 ± 0.1
V49K | -0.093 ± 0.098
N55W | -0.135 ± 0.065
N55D | 0.066 ± 0.11
N33F | -0.082 ± 0.14
N33R | -0.148 ± 0.045
N33W | -0.204 ± 0.066
N33K | -0.208 ± 0.076
N33E | 0.055 ± 0.075
W48V | -0.887 ± 0.29

Reference: the Human Domainome abundance scans (Beltran et al. 2025)
